In publication PMC10148881 (2023):

B1: Ala6/C-degron peptide (sequence: YKTSAAAAAA) / Pirh2 NTD + RING (residues 1–189) [human] (parent complex)
chain 1: YKTSAAAAAA
chain 2: MAATAREDGASGQERGQRGCEHYDRGCLLKAPCCDKLYTCRLCHDNNEDHQLDRFKVKEVQCINCEKIQHAQQTCEECSTLFGEYYCDICHLFDKDKKQYHCENCGICRIGPKEDFFHCLKCNLCLAMNLQGRHKCIENVSRQNCPICLEDIHTSRVVAHVLPCGHLLHRTCYEEMLKEGYRCPLCMHS
B2: YKTSAAAA peptide / Pirh2 NTD + RING (residues 1–189) [human] (parent complex)
chain 1: YKTSAAAA
chain 2: B1 chain 2

Variants of: B1
Test: ITC

Row | Variant | Kd [µM]
1 | chain 1 A8T | 0.7

Variants of: B2
Test: ITC

Row | Variant | Kd [µM]
2 | chain 1 A7V | 13
3 | chain 1 A7P | 26
4 | chain 1 A7I | 13
5 | chain 1 A7S | 20
6 | chain 1 A7G | 22

Variants of: B2
Test: ITC
Remark: another data set of the same source

Row | Variant | Kd [µM]
7 | chain 1 A5P | 57
8 | chain 1 A5S | 4.5
9 | chain 1 A5G | 55

Variants of: B2
Test: ITC
Remark: another data set of the same source

Row | Variant | Kd [µM]
10 | chain 1 A8G | 23

Variants of: B2
Test: ITC
Remark: another data set of the same source

Row | Variant | Kd [µM]
11 | chain 1 A6L | 2.8
12 | chain 1 A6S | 3
13 | chain 1 A6I | 2.7
14 | chain 1 A6G | 2.3
15 | chain 1 A6V | 1.9
